The target of experiment [1] is T1, Human MMP9 (human, UniProt P14780 20-707).
T1 construct: also called human matrix metalloproteinase-9; gelatinase-B
Description: ELISA. On the technique in general: In an ELISA, binding on a coated surface is turned into a signal by an enzyme label.

For experiment [2], the target named is T2, Mouse MMP9 (mouse, UniProt P41245 20-730, limits assumed).
T2 construct: also called murine MMP9; wild-type mouse MMP9
Description: ELISA.

Experiment [3] concerns the target T1, Human MMP9. As to the kind of experiment: cell-based or functional assay.
Experiment [4] deals with T3, Cynomolgus monkey MMP9 (cynomolgus monkey, UniProt A0A2K5UU71 20-706). Description: cell-based or functional assay.
In experiment [5] the target is T2, Mouse MMP9. Description: cell-based or functional assay.
Experiment [6] concerns the target T4, Rat MMP9 (rat, UniProt P50282 20-708, limits assumed). Description: cell-based or functional assay.
Experiment [7] has as its target T1, Human MMP9. Description: ELISA. The source holds these as a separate data set.
The target in experiment [8] is T3, Cynomolgus monkey MMP9. As to the kind of experiment: ELISA.
Experiment [9] has as its target T4, Rat MMP9. Description: ELISA.
In experiment [10] the target is T1, Human MMP9. As to the kind of experiment: SPR.
The target in experiment [11] is T1, Human MMP9. Description: ELISA. The source holds these as a separate data set.
Experiment [12] deals with T3, Cynomolgus monkey MMP9. Description: ELISA. This is another data set of the same source.
For experiment [13], the target named is T2, Mouse MMP9. As to the kind of experiment: ELISA. The source holds these as a separate data set.
Experiment [14] concerns the target T4, Rat MMP9. As to the kind of experiment: ELISA. The source holds these as a separate data set.
Experiment [15] has as its target T3, Cynomolgus monkey MMP9. As to the kind of experiment: ELISA. This is another data set of the same source.
Experiment [16] has as its target T4, Rat MMP9. Description: ELISA. The source holds these as a separate data set.
The target in experiment [17] is T1, Human MMP9. Description: cell-based or functional assay. The source holds these as a separate data set.
Experiment [18] concerns the target T1, Human MMP9. As to the kind of experiment: direct binding and SPR assays. For orientation: In SPR one partner is held on a chip, and binding of the other changes the refractive index at the surface.

Several values for one entry are separate records, joined by “and”; a condition that tells them apart may be missing. Equal values may be shown once. Read-outs that look alike come from different tables or passages of the source. Some results are limits rather than exact numbers.

In general, Kd refers to the concentration at which binding is half-saturated.

T2 sequence (P41245 20-730 limits assumed): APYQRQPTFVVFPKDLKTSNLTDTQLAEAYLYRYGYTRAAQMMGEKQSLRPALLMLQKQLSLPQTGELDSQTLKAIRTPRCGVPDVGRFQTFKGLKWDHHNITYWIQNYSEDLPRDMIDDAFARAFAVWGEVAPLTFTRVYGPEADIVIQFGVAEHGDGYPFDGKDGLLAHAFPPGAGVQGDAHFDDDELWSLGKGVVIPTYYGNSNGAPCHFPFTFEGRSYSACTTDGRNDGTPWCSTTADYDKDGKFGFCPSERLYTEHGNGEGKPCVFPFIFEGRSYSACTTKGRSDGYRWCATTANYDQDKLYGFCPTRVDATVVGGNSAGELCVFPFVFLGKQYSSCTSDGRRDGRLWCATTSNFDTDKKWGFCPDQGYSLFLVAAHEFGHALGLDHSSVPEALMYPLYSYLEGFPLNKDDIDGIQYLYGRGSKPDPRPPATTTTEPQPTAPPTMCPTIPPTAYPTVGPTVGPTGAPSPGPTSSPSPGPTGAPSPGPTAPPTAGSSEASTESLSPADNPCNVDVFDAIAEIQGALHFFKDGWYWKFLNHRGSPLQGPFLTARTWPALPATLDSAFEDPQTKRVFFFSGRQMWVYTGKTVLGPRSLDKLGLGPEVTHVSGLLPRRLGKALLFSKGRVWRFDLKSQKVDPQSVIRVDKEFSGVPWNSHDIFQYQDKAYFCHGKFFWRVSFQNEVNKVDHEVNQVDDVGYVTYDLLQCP
T1 sequence (P14780 20-707 Q279R/R574P): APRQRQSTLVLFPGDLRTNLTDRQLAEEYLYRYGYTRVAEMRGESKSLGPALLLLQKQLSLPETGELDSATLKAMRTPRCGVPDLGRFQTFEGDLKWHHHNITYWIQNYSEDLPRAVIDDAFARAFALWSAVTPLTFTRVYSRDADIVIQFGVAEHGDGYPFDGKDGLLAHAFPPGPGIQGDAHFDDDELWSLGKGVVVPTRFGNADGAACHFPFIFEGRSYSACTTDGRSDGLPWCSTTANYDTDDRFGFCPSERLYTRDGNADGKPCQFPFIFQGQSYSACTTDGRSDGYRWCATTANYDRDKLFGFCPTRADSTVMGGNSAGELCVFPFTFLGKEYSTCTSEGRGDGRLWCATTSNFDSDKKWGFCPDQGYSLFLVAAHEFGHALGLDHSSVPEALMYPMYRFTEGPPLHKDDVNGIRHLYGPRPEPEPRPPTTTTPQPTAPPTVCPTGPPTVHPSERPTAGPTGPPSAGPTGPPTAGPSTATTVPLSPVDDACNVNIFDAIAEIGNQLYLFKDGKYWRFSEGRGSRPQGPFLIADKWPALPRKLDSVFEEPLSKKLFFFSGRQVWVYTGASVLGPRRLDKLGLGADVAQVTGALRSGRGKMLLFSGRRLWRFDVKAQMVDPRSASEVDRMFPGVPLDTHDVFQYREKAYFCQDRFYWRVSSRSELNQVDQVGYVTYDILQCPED
T4 sequence (P50282 20-708 limits assumed): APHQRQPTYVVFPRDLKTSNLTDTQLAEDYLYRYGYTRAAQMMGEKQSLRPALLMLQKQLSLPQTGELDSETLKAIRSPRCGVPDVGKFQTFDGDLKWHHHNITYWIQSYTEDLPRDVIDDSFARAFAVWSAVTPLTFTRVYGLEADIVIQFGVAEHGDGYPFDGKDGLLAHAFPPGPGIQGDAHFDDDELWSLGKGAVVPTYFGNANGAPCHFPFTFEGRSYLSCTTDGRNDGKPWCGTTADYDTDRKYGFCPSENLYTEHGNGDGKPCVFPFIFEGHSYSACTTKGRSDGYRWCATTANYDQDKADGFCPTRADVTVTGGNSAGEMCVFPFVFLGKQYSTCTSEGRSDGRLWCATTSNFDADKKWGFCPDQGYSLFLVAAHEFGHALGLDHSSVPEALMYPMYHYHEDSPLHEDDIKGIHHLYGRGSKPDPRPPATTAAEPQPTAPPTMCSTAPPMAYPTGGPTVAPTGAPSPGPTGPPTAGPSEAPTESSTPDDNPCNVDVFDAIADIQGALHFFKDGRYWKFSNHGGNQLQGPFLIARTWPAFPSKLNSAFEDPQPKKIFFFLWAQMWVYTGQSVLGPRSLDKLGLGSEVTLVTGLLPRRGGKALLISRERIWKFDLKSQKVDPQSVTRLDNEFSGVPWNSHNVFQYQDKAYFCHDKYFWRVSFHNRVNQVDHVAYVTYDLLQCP
T3 sequence (A0A2K5UU71 entry or part of it): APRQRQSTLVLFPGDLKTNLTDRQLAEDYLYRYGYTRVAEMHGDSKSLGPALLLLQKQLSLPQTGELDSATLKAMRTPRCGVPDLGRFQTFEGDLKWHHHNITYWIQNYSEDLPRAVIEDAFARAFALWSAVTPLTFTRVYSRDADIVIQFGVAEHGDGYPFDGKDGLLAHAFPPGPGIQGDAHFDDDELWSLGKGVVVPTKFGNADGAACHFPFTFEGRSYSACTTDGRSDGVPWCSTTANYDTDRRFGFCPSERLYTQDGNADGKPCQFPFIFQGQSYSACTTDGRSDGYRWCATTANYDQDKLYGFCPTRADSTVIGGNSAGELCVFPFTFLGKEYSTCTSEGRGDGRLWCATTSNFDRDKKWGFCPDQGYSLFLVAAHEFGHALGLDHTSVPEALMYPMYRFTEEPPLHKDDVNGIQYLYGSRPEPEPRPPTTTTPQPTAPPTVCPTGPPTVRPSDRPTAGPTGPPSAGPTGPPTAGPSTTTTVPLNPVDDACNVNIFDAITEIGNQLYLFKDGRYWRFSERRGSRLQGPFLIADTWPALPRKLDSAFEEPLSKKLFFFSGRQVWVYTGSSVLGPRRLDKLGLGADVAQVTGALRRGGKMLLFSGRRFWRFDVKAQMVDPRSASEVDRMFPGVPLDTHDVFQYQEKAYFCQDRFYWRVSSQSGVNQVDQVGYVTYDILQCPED

B1: AB0046 (antibody, mouse IgG1, kappa, V domains shown)
VH: QVQLQQPGSVLVRPGASVKLSCTASGYTFTSYWMNWVKQRPGQGLEWIGEIYPISGRTNYNEKFKVKATLTVDTSSSTAYMDLNSLTSEDSAVYYCARSRANWDDYWGQGTTLTVSS
VL: DIQMTQTTSSLSASLGDRVTISCSASQGISNYLNWYQQKPDGTFKLLIYYTSILHSGVPSRFSGSGSGTDYSLTISNLEPEDIATYYCQQYGWLPRTFGGGTKLEIKR
notes: Mouse IgG1/kappa raised in MMP9-knockout mice against mouse MMP9; also called surrogate mouse antibody AB0046
For the molecule B1, the figures for the Kd in experiment [1] and in experiment [2] were greater than 100 nM and 0.218 nM, respectively. Also, in experiment [3], the “Activity Assay, Human MMP9 IC50” value is greater than 100 nM. Besides, the “Activity Assay, Cynomolgus monkey MMP9 IC50” value in experiment [4] is greater than 100 nM. Further, the “Activity Assay, Mouse MMP9 IC50” value in experiment [5] came to 0.352 nM. In addition, the “Activity Assay, Rat MMP9 IC50” value in experiment [6] was greater than 100 nM.

B2: AB0041 (antibody, mouse IgG2b, kappa, V domains shown)
VH: QVQLKESGPGLVAPSQSLSITCTVSGFSLLSYGVHWVRQPPGKGLEWLGVIWTGGTTNYNSALMSRLSISKDDSKSQVFLKMNSLQTDDTAIYYCARYYYGMDYWGQGTSVTVSS
VL: DIVMTQSHKFMSTSVGDRVSITCKASQDVRNTVAWYQQKTGQSPKLLIYSSSYRNTGVPDRFTGSGSGTDFTFTISSVQAEDLAVYFCQQHYITPYTFGGGTKLEIKR
notes: Mouse IgG2b/kappa from hybridoma; derived by aligning the variable region entries to the full chains; also called mouse monoclonal anti-MMP9 antibody (AB0041)
As for B2, the Kd in experiment [7] is less than 0.4 nM; in [8] it was less than 0.4 nM; in [9] it was less than 0.4 nM; in experiment [10], 0.4 pM; in experiment [11], 0.133 nM; in [12], 0.145 nM. For the same molecule, the Kd in experiment [13] is greater than 100 nM; in experiment [14], 0.332 nM; in [1], 0.133 nM; in experiment [15], 0.145 nM; in [2], greater than 100 nM; in experiment [16], 0.332 nM. The “Activity Assay, Human MMP9 IC50” value in experiment [3] came to 0.569 nM. Besides, in experiment [4], the “Activity Assay, Cynomolgus monkey MMP9 IC50” value worked out at 0.189 nM. Further, in experiment [5], the “Activity Assay, Mouse MMP9 IC50” value was greater than 100 nM. Also, the “Activity Assay, Rat MMP9 IC50” value in [6] worked out at 2.78 nM.

B3: AB0045 (antibody, human IgG4 S228P, kappa, V domains shown)
VH: QVQLQESGPGLVKPSETLSLTCTVSGFSLLSYGVHWVRQPPGKGLEWLGVIWTGGTTNYNSALMSRFTISKDDSKNTVYLKMNSLKTEDTAIYYCARYYYGMDYWGQGTLVTVSS
VL: DIQMTQSPSSLSASVGDRVTITCKASQDVRNTVAWYQQKPGKAPKLLIYSSSYRNTGVPDRFSGSGSGTDFTLTISSLQAEDVAVYYCQQHYITPYTFGGGTKVEIKR
notes: Humanized AB0041, modified IgG4 (S241P); also called humanized variant anti-MMP9 antibody; VH3/Vk4
As to B3, the Kd in experiment [7] is less than 0.4 nM; in experiment [8] it was less than 0.4 nM; in experiment [9], less than 0.4 nM; in experiment [10] it was 8.8 pM; in [11], 0.168 nM; in [12], 0.082 nM. The Kd in experiment [14] is 0.311 nM; in [1], 0.168 nM; in [15], 0.082 nM; in [2], greater than 100 nM; in experiment [16], 0.311 nM; in experiment [18] it was roughly 1 pM. The “IC50, MMP9 enzymatic assay under steady-state conditions” value in experiment [17] was 0.148 nM to 0.161 nM (2×) and 0.158 nM. In addition, the “Activity Assay, Human MMP9 IC50” value in experiment [3] was found to be 0.691 nM. Also, the “Activity Assay, Cynomolgus monkey MMP9 IC50” value in experiment [4] is 0.194 nM. The “Activity Assay, Mouse MMP9 IC50” value in experiment [5] is greater than 100 nM. For the same molecule, the “Activity Assay, Rat MMP9 IC50” value in experiment [6] was found to be 8.23 nM.
